# Test results taken from the RNAGym collection of RNA variant scans (doi:10.1021/acssynbio.7b00057).
# B1: Pistol ribozyme (parent)
# chain: GGGUCGUUGUUCCAUAAUCGCGUGGAUAUGGCACGCAAGUUUCUACCGGGCACCGUAAAUGUCCGACUGGAGCCGUUCGGGCGGCUAUAAACAGACCUCAGGCCCGAAGCGUGGCGGCACCUGCCGCCGGUGGUAAAAAAGAUCGGAAGAGCACACGUCU
# Variants of: B1
# Assay: aptazyme ON/OFF ratio, guanine; higher = stronger switching; co-transcriptional cleavage with and without guanine
row,Variant,aptazyme ON/OFF ratio
1,U7C U8C G9C U10C U11C C12A C13G,1.09
2,U7C U8C G9C U10C U11C C12A C13U,1.02
3,U7C U8C G9C U10C U11C C12A C13A,0.986
4,U7C U8C G9C U10C U11A,1.4
5,U7C U8C G9C U10C U11C,1.14
6,U7C U8C G9C U10C U11G,1.3
7,U7C U8C G9C U10A C12G,1.16
8,U7C U8C G9C U10A C12A,1.11
9,U7C U8C G9C U10A C12U,1.26
10,U7C U8C G9A U10C U11C C12U C13G,1.24
11,U7C U8C G9A U10C U11C C12U C13A,1.2
12,U7C U8C G9A U10C U11C C12U C13U,1.32
13,U7C U8C G9C U10C U11G C12A C13U,1.09
14,U7C U8C G9C U10C U11G C12A C13A,1.08
15,U7C U8C G9C U10C U11G C12A C13G,1.04
16,U7C U8C G9C U10C U11A C13A,1.14
17,U7C U8C G9C U10C U11A C13U,1.05
18,U7C U8C G9C U10C U11A C13G,1.13
19,U7C U8C G9C C12U C13U,1.14
20,U7C U8C G9C C12U C13G,1.11
21,U7C U8C G9C C12U C13A,1.16
22,U7C U8C G9C U10C U11G C12U C13A,1.09
23,U7C U8C G9C U10C U11G C12U C13G,1.1
24,U7C U8C G9C U10C U11G C12U C13U,1.1

row,Variant,aptazyme ON/OFF ratio
1,U7C U8C G9C U10A C12A C13A,1.09
2,U7C U8C G9C U10A C12A C13U,1.21
3,U7C U8C G9C U10A C12A C13G,1.14
4,U7C U8C G9A U10G U11A C12U C13U,1.23
5,U7C U8C G9A U10G U11A C12U C13G,1.19
6,U7C U8C G9A U10G U11A C12U C13A,1.19
7,U7C U8C G9C U10A U11G C12G C13A,1.15
8,U7C U8C G9C U10A U11G C12G C13U,1.1
9,U7C U8C G9C U10A U11G C12G C13G,1.12
10,U7C U8C G9A U10C C12A C13U,1.21
11,U7C U8C G9A U10C C12A C13A,1.52
12,U7C U8C G9A U10C C12A C13G,1.2
13,U7C U8C G9C U10A U11G C12A C13A,1.07
14,U7C U8C G9C U10A U11G C12A C13U,1.14
15,U7C U8C G9C U10A U11G C12A C13G,1.12
16,U7C U8C G9A U11A C12A C13U,1.38
17,U7C U8C G9A U11A C12A C13G,1.18
18,U7C U8C G9A U11A C12A C13A,1.43
19,U7C U8C G9C U10A U11G C13U,1.17
20,U7C U8C G9C U10A U11G C13A,1.13
21,U7C U8C G9C U10A U11G C13G,1.14
22,U7C U8C G9A U10C U11G C12U C13U,1.23
23,U7C U8C G9A U10C U11G C12U C13A,1.45
24,U7C U8C G9A U10C U11G C12U C13G,1.33

row,Variant,aptazyme ON/OFF ratio
1,U7C U8C G9A U10C U11A C12A C13A,1.18
2,U7C U8C G9A U10C U11A C12A C13G,1.4
3,U7C U8C G9A U10C U11A C12A C13U,1.18
4,U7C U8C G9A U11G C12U C13U,1.35
5,U7C U8C G9A U11G C12U C13G,1.15
6,U7C U8C G9A U11G C12U C13A,1.22
7,U7C U8C G9C U10C C12G C13G,1.04
8,U7C U8C G9C U10C C12G C13U,1.04
9,U7C U8C G9C U10C C12G C13A,1.16
10,U7C U8C G9A U10G U11C C12G,1.12
11,U7C U8C G9A U10G U11C C12A,1.54
12,U7C U8C G9A U10G U11C C12U,1.43
13,U7C U8C G9C U10C U11A C12U C13A,1.08
14,U7C U8C G9C U10C U11A C12U C13G,1.11
15,U7C U8C G9C U10C U11A C12U C13U,1.1
16,U7C U8C G9A U10G U11C C12G C13U,1.19
17,U7C U8C G9A U10G U11C C12G C13A,1.17
18,U7C U8C G9A U10G U11C C12G C13G,1.26
19,U7C U8C G9C U10C U11C C12G C13U,1.1
20,U7C U8C G9C U10C U11C C12G C13A,1.28
21,U7C U8C G9C U10C U11C C12G C13G,1.19
22,U7C U8C G9C U10C U11C C12U C13A,1.08
23,U7C U8C G9C U10C U11C C12U C13G,1.08
24,U7C U8C G9C U10C U11C C12U C13U,1.03

row,Variant,aptazyme ON/OFF ratio
1,U7C U8C G9A U10C,1.45
2,U7C U8C G9A U10G,1.56
3,U7C U8C G9A U10G U11A C12G C13U,1.11
4,U7C U8C G9A U10G U11A C12G C13A,1.19
5,U7C U8C G9A U10G U11A C12G C13G,1.2
6,U7C U8C G9C U10C,3.53
7,U7C U8C G9C U10G,1.61
8,U7C U8C G9C U10A,2.7
9,U7C U8C G9A U10C U11C C12G,1.19
10,U7C U8C G9A U10C U11C C12A,1.25
11,U7C U8C G9A U10C U11C C12U,1.41
12,U7C U8C G9C U10A C12U C13U,1.11
13,U7C U8C G9C U10A C12U C13A,1.11
14,U7C U8C G9C U10A C12U C13G,1.13
15,U7C U8C G9A U10G U11A C12A C13G,1.2
16,U7C U8C G9A U10G U11A C12A C13U,1.16
17,U7C U8C G9A U10G U11A C12A C13A,1.17
18,U7C U8C G9C U10A U11C C12A C13U,1.13
19,U7C U8C G9C U10A U11C C12A C13G,1.09
20,U7C U8C G9C U10A U11C C12A C13A,1.09
21,U7C U8C G9A U11C C12U,1.66
22,U7C U8C G9A U11C C12A,1.51
23,U7C U8C G9A U11C C12G,1.17
24,U7C U8C G9C U10A U11G C12U C13A,1.15

row,Variant,aptazyme ON/OFF ratio
1,U7C U8C G9C U10A U11G C12U C13U,1.1
2,U7C U8C G9C U10A U11G C12U C13G,1.08
3,U7C U8C G9C U10G C12U,1.2
4,U7C U8C G9C U10G C12A,1.1
5,U7C U8C G9C U10G C12G,1.1
6,U7C U8C G9A U10C C12U C13G,1.26
7,U7C U8C G9A U10C C12U C13A,1.22
8,U7C U8C G9A U10C C12U C13U,1.32
9,U7C U8C G9A U11C C12U C13U,1.18
10,U7C U8C G9A U11C C12U C13A,1.19
11,U7C U8C G9A U11C C12U C13G,1.08
12,U7C U8C G9C U10A U11A C12G C13G,1.19
13,U7C U8C G9C U10A U11A C12G C13U,1.09
14,U7C U8C G9C U10A U11A C12G C13A,1.11
15,U7C U8C G9C U10A C12G C13U,1.1
16,U7C U8C G9C U10A C12G C13A,1.11
17,U7C U8C G9C U10A C12G C13G,1.17
18,U7C U8C G9C U10C C12G,1.14
19,U7C U8C G9C U10C C12A,1.08
20,U7C U8C G9C U10C C12U,1.94
21,U7C U8C G9A U11C C13A,1.22
22,U7C U8C G9A U11C C13G,1.05
23,U7C U8C G9A U11C C13U,1.29
24,U7C U8C G9A U10C U11A C12A,1.51

row,Variant,aptazyme ON/OFF ratio
1,U7C U8C G9A U10C U11A C12U,1.22
2,U7C U8C G9A U10C U11A C12G,1.23
3,U7C U8C G9C U10C C12U C13U,1.09
4,U7C U8C G9C U10C C12U C13G,1.14
5,U7C U8C G9C U10C C12U C13A,1.1
6,U7C U8C G9A U10C U11G C13A,1.11
7,U7C U8C G9A U10C U11G C13U,1.32
8,U7C U8C G9A U10C U11G C13G,1.15
9,U7C U8C G9C U10A U11C C12G,1.21
10,U7C U8C G9C U10A U11C C12U,1.17
11,U7C U8C G9C U10A U11C C12A,1.21
12,U7C U8C G9A U11G C13G,1.28
13,U7C U8C G9A U11G C13U,1.27
14,U7C U8C G9A U11G C13A,1.3
15,U7C U8C G9C U10C C12A C13G,1.07
16,U7C U8C G9C U10C C12A C13U,1.1
17,U7C U8C G9C U10C C12A C13A,1.06
18,U7C U8C G9A U10G C12U C13U,1.42
19,U7C U8C G9A U10G C12U C13G,1.16
20,U7C U8C G9A U10G C12U C13A,1.15
21,U7C U8C G9A U10C U11G C12A C13G,1.16
22,U7C U8C G9A U10C U11G C12A C13A,1.28
23,U7C U8C G9A U10C U11G C12A C13U,1.52
24,U7C U8C G9C U10A U11C C12U C13A,1.13

row,Variant,aptazyme ON/OFF ratio
1,U7C U8C G9C U10A U11C C12U C13U,1.17
2,U7C U8C G9C U10A U11C C12U C13G,1.13
3,U7C U8C G9C U10C U11A C12G,1.11
4,U7C U8C G9C U10C U11A C12A,1.12
5,U7C U8C G9C U10C U11A C12U,1.02
6,U7C U8C G9A U10C U11C C13G,1.21
7,U7C U8C G9A U10C U11C C13A,1.08
8,U7C U8C G9A U10C U11C C13U,1.19
9,U7C U8C G9A U10C C13G,1.35
10,U7C U8C G9A U10C C13A,1.47
11,U7C U8C G9A U10C C13U,1.52
12,U7C U8C G9C U10C U11C C13U,0.989
13,U7C U8C G9C U10C U11C C13G,1.12
14,U7C U8C G9C U10C U11C C13A,1.06
15,U7C U8C G9A U10C U11A C12G C13G,1.19
16,U7C U8C G9A U10C U11A C12G C13A,1.26
17,U7C U8C G9A U10C U11A C12G C13U,1.13
18,U7C U8C G9A U10G C12A C13U,1.06
19,U7C U8C G9A U10G C12A C13G,1.09
20,U7C U8C G9A U10G C12A C13A,1.13
21,U7C U8C G9A U11G C12A C13A,1.3
22,U7C U8C G9A U11G C12A C13U,1.59
23,U7C U8C G9A U11G C12A C13G,1.25
